Source: patent US20200024338A1 (Stanford University, published 2020)

T1: Human RNF43 Extracellular Domain (ECD) (amino acids 24-197) (human, UniProt Q68DV7 24-197, site-specifically biotinylated by BirA ligase at the C-terminal biotin-acceptor peptide)
T1 construct: range 24-197; The methods say that RNF43 means the ECD only; also called RNF43 ECD; biotinylated RNF43
T1 sequence: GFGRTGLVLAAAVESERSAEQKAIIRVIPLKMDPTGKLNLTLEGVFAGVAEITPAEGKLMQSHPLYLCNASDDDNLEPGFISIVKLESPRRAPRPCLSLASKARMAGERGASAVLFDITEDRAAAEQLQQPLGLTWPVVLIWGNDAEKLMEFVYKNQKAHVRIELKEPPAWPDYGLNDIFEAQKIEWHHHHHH

T2: Human ZNRF3 ECD (amino acids 56-219) (human, UniProt Q9ULT6 56-219, site-specifically biotinylated by BirA ligase at the C-terminal biotin-acceptor peptide)
T2 construct: range 56-219; The methods say that ZNRF3 means the ECD only; also called ZNR3 ECD; biotinylated ZNRF3
T2 sequence: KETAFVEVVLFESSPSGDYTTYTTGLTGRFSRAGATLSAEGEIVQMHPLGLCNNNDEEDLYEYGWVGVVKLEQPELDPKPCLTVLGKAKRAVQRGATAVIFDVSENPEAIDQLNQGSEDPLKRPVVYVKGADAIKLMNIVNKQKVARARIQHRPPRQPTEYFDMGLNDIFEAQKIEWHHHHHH


Tests used:
[1] = target: T1, Human RNF43 Extracellular Domain (ECD) …; test: yeast surface display titration: scFv-displaying yeast with increasing RNF43, flow cytometry, normalized MFI
Procedure: (§1) Plasmids from the final round of selection were isolated using the Zymoprep Yeast Plasmid Miniprep Kit (Zymo Research) and sequenced. These plasmids were electroporated into S. cerevisiae EBY100 yeast and recovered in SDCAA selection media, followed by induction in SGCAA induction media. The individual scFv-transformed yeast were incubated with increasing concentration of biotinylated RNF43/ZNRF3. These yeast were stained with SA-647 and Myc-488 and fluorescence was monitored by flow cytometry. The data were analyzed by GraphPad Prism 7 and the highest affinity clones were identified for subsequent experiments.

[2] = target: T2, Human ZNRF3 ECD (amino acids 56-219); test: yeast surface display titration: scFv-displaying yeast with increasing ZNRF3, flow cytometry, normalized MFI
Procedure: as §1

| EC50 [1] | EC50 [2] | Binder |
| --- | --- | --- |
| 122 nM | – | R5 scFv (scFv) scFv: ASQITLKESGPTLVKPTQTLTLTCSFSGFSLSFSGVGVAWIRQPPGKALEWLALIYWDDDKRYSPSLKSRLTITKDTSKNQVVLTMTNMDPLDTATYYCAHREWKAFGAFDIWGQGTMVTVSSGILGSGGGGSGGGGSGGGGSQPVLTQSPSASGTPGQRVTISCSGSSSNIGSNTVNWYQQLPGTAPKLLIYSNNQRPSGVPDRFSGSKSVTSASLAISGLQSEDEAEYYCATWDDSLNGAVFGGGTQLTVLSGILG |
| – | 113 nM | Z6 scFv (scFv) scFv: ASQVQLVQSGAEVKNPGASVKVSCKASGYAFTSYGISWVRQAPGQGLEWMGWISAYTRNTNYAQKFQGRVTLTTDTSTSTAYMELRSLRSDDTAIYYCARDARYSLGVGAFDVWGQGTMVTVSSGILGSGGGGSGGGGSGGGGSETTLTQSPAFMSATPGDKVSISCKASRDIDDDLNWYQQKPGEAAISIIQEATTLVPGIPPRFSGSGYGTDFTLTINNIESEDAAYYFCLQHDDVPYTFGQGTKLEIKSGIL |
